# Where a chain is given by its changes, count along the chain named.
# T1: cynomolgus BDCA2 (cynomolgus monkey, UniProt A0A2K5UWP4 1-212)
# T1 construct: whole, on cells; also called Cyno BDCA2; cynoBDCA2
# T1 sequence: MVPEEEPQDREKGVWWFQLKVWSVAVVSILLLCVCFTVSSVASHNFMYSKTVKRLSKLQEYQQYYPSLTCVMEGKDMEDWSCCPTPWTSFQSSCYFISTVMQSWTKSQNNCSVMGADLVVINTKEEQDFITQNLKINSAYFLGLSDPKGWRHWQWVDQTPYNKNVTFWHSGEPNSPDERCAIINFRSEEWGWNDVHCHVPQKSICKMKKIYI
# T2: human BDCA2 (human, UniProt Q8WTT0 1-213)
# T2 construct: whole, on cells; also called hBDCA2; Blood dendritic cell antigen 2
# T2 sequence (looked up): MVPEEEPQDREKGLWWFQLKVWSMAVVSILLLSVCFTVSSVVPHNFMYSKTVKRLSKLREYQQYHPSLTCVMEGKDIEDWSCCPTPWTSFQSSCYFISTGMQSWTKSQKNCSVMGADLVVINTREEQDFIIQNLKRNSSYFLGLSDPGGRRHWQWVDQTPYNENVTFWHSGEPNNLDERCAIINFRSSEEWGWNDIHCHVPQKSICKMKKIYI
# B1: mAb021 (antibody, V domains shown)
# VH: DVQLQESGPGLVKPSQSLSLTCSVTGYSITSAYYWNWIRQFPGNKLECMGYITYDGNNYYSPSLKNRISITRDTSKNQFFLNLNSVTTEDTATYFCARGGDYDDGGFAFWGQGTLVTVSA
# VL: DIQMTQSPASLSASVGETVTITCRASGNIHNYLAWYHQKQGKSPQLLVYNAKSLVDGVPSRFSGSGSGTQYSLRINSLQPEDFGSYYCQHFWIVPYTFGGGTKLEII
# notes: Mouse hybridoma antibody
# B2: mab020c (antibody, V domains shown)
# VH: DVQLQESGPGLVKPSQSLSLTCSVTGYSIASGYYWNWIRQFPGNKLEWMGYISFDGTYNYNPSLKDRFSITRDTSKNQFFLKLNSVTTEDTATYYCARGVDYPNAIDWWGQGTSVTVSS
# VL: DIVLTQSPASLAVSLGQRATISCRASESVSMHVTHLIHWYQQKPGQPPKLLIYVASNLESGVPARFSGSGSETDFTLNIHPVEEEDAATYFCQQSFEDPWTFGGGTKLEIK
# B3: mab024c (antibody, V domains shown)
# VH: EVQLVESGGDLVKPGGSLKLSCAASGFTFSSFGMSWVRQTPDKRLDWVATISSGDSYTYYPDSVKGRFSISRDNAKNTLYLQMSSLKSEDTAVYYCARQIYYDYAYYFDYWGQGTTLTVSS
# VL: B2 VL with M31F, H32R, V33S, T34S, I37M, Q41R, V54A, T89A, F96I, W100P
# B4: mab022c (antibody, V domains shown)
# VH: B2 VH with A30T, N104K, I106M
# VL: B2 VL
# B5: mab019c (antibody, V domains shown)
# VH: EVKLVESGGDLVQPGGSLKLSCAASGFTFSDYYMYWVRQTPEKRLEWVAYISYSGDSTYYPDTVKGRFTISRDNAKNTLFLQMSRLKSEDTAMYYCARHSPSFPYYFDYWGQGTALTVSS
# VL: EIVLTQSPAITAASLGQKVTITCSASSSVSYMHWYQQKSGTSPKPWIYEISKLASGVPARFSGSGSGTSYSLTISSMEAEDAAIYYCQLWNYPLITFGGGTNLEIK
# B6: mab021c (antibody, V domains shown)
# VH: B1 VH
# VL: B1 VL
# B7: mab030c (antibody, V domains shown)
# VH: B1 VH with T53S, N57S, S61N, N82S, A97V, F109Y
# VL: B1 VL with H37Q, S53T, V55A, G68E, R74K, S85N, Y87F, V94I, I107K
# B8: mab027c (antibody, V domains shown)
# VH: B1 VH with I38V, K45Q, N57S, Y59N, S61N, N82K, F95Y, A97V, F109Y
# VL: B1 VL with H37Q, S53T, Q70E, R74K, S85I, Y87F, V94I, I107R
# Target: T1, cynomolgus BDCA2
# Assay: FACS on 293F-cynoBDCA2 cells; EC50 table under the plot, unit from the x axis (nM) [continued) d.]
# Experimental: (§1) The cells were recovered and resuspended to 2×10⁶/mL with FACS buffer (PBS+2% FBS). The cells were added to 3799 cell plates (Corning) at 100 μL/well, and the supernatant was discarded after centrifugation at 300 g. The antibodies were serially diluted with FACS buffer (Id.), the diluted antibodies were added to centrifuged cells and the cells were resuspended. The cells were incubated at 4° C. for 1 h. The incubated cells were then centrifuged at […] for 5 min and washed twice with FACS buffer. 100 μL Donkey anti-Mouse IgG (H+L) Highly Cross-Adsorbed Secondary Antibody-Alexa Fluor 488 (Invitrogen, A21202; 1:1000) secondary antibody was added to the cells, which were washed twice with FACS buffer after incubation at 4° C. for 1 h, resuspended with PBS, analyzed with FACS (BD FACS CantoTM II) instrument. The curve was fitted with GraphPad Prism6, and EC₅₀ values were calculated.
row,Binder,EC50
1,B1,0.566 nM

# Target: T2, human BDCA2
# Assay: FACS on CHOK1-hBDCA2 cells; EC50 table beside the plot, unit from the x axis (nM) [continued) c.]
# Experimental: The cells were recovered and resuspended to 2×10⁶/mL with FACS buffer (PBS+2% FBS). The cells were added to 3799 cell plates (Corning) at 100 μL/well, and the supernatant was discarded after centrifugation at 300 g. The antibodies were serially diluted with FACS buffer (Id.), the diluted antibodies were added to centrifuged cells and the cells were resuspended. The cells were incubated at 4° C. for 1 h. The incubated cells were centrifuged at 300 g for 5 min and washed twice with FACS buffer. 100 μL […] anti-Human IgG (H+L) Cross-Adsorbed Secondary Antibody-Alexa Fluor 488 (Sigma, A11013; 1:1000) secondary antibody was added, washed twice with FACS buffer after incubation at 4° C. for 1 h, resuspended with PBS, analyzed with FACS (BD FACS CantoTM II) instrument and curve fitted with GraphPad Prism6, and EC₅₀ values were calculated.
row,Binder,EC50
1,B2,0.831 nM
2,B3,0.549 nM
3,B4,0.939 nM
4,B5,5.17 nM
5,B6,0.479 nM
6,B7,0.583 nM
7,B8,0.443 nM

# Target: T2, human BDCA2
# Assay: FACS on CHOK1-hBDCA2 cells; EC50 table under the plot, unit from the x axis (nM) [continued) d.]
# Experimental: as §1
row,Binder,EC50
1,B1,0.328 nM

# Target: T2, human BDCA2
# Assay: cell-based or functional assay
Binder,"IC50, inhibition of IFNα secretion, CpG-A stimulated human PBMC","IC50 for inhibiting cytokine IFNα release, CpG-A stimulated human PBMC"
B2,0.0185 nM,–
B3,0.0168 nM,–
B4,0.0324 nM,–
B5,0.0149 nM,–
B6,0.0127 nM,–
B1,–,4.05 pM
B7,0.0164 nM,–
B8,0.00898 nM,–
